Results on one molecule are retold here after US9486502B2, “Methods of administering interferon gamma to absorb fluid from the subretinal space” (The United States of America, as represented by the …, priority 2008, dated 2016).

In one assay the test system is rat RPE. As to the kind of experiment: in vivo retinal re-attachment assay (OCT). On the procedure:
All animal experiments were conducted in compliance with the ARVO Statement for the use of Animals in Ophthalmic and Vision Research, and the protocol was approved by the Animal Care and Use Committee of the National Institutes of Health. The procedures have been described in detail in Maminishkis, A., et al., Invest Ophthalmol Vis Sci, 2006, 47, 3612-3624, incorporated by reference in its entirety herein. Briefly, retinal detachments were created in long-Evans rats by injecting 0.5 to 3 μl of modified phosphate-buffered saline (MPBS) Ringer's solution into the sub-retinal space (SRS), which separates the photoreceptor outer segments and the apical membrane of the RPE. In the control portion of each experiment (at 0-70 minutes after creation of the retinal detachment), the rate of change of bleb volume was measured. The control period of “constant” volume was defined by JV≦2 μl hr cm over at least 40 minutes. Any control injections that exceeded this threshold rate were rejected from subsequent analysis.
IFNγ was dissolved in MPBS, mixed with Celluvisc® solution (1:1) and applied as eye-drops (0.4 mL). Optical coherence tomography (OCT) imaging (Institute of Applied Physics, Russian Academy of Science, Nizhniy Novgorod, Russia) was used to measure the time course of the detachment volume change.
A previously tested in vivo rodent model of retinal detachment was used to measure the effect of IFNγ on re-absorption following retinal detachment, as described in Example 11 and in Maminishkis, A., et al., Invest Ophthalmol Vis Sci, 2002, 43, 3555-3566, incorporated herein by reference in its entirety. Initial detachment was created by injecting approximately 1 μl of osmotically-balanced, modified phosphate-buffered saline (MPBS) Ringer's solution into the extracellular space, i.e. the sub-retinal space (SRS). After stabilization of the detachment, IFNγ (40 μl of 100 ng/ml) was added to the anterior surface of the eye via eye drops (Celluvisc®). A series of 3D OCT images were recorded at different time points.

The subject of another assay is hfRPE cells. As to the kind of experiment: wound healing assay, hfRPE migration. The settings on record: 48 hours, proliferation suppressed with mitomycin C. The format is cell-based, human. On the procedure:
The wound healing assay was used to study the effects of inflammatory cytokines on hfRPE cell migration, as described previously in Li, R., et al. Invest Ophthalmol Vis Sci, 2007, 48, 5722-5732, incorporated herein by reference in its entirety. Cell proliferation was suppressed by incubation with 10 μg/ml mitomycin C (Sigma) for 2 hours before all migration experiments. A circular denuded area (7 mm in diameter) was made in each well using a custom designed cell scraper. After incubation with various inflammatory cytokines for 48 hours, cells were fixed with cold methanol and stained with ethidium homodimer-1 (EthD-1, Invitrogen) according to the manufacturer's instructions. Cell migration was quantified by counting the average number of cells that migrated into the denuded area in 16 microscope fields surrounding the circumference of the denuded area. Each condition was tested in triplicate and repeated using cells from different donors.

Another assay has as its system hfRPE monolayers. In words: fluid transport (JV, TEP, RT) across hfRPE monolayers in modified Üssing chamber. The format is cell-based, human. The source says:
Confluent monolayers of hfRPE cultured on transwells were mounted in a modified Üssing chamber and transepithelial water flow measurements (JV) were made with a capacitance probe technique as described previously in Maminishkis, A., et al., Invest Ophthalmol Vis Sci, 2006, 47, 3612-3624; Shi, G., et al., Invest Ophthalmol Vis Sci, 2008, 49, 4620-4630; Edelman, J. L., et al., Invest Ophthalmol Vis Sci, 1991, 32, 3033-3040; Jiang, C., et al., Science, 1993, 262, 424-427; and Maminishkis, A., et al., Invest Ophthalmol Vis Sci, 2002, 43, 3555-3566, each incorporated herein by reference in its entirety.
Tissue viability was ascertained by recording transepithelial potential (TEP) and total tissue resistance (RT). It should be noted that the solution composition changes in this chamber were relatively slow (≈1-2 chamber volumes per minute) and the data sampling rate was once per minute, more than two orders of magnitude slower than the sampling rate in the electrophysiology chamber (see below). Therefore it was not possible to record fast changes, in seconds or minutes, in JV, TEP, or RT. After addition of IFNγ to the apical or basal baths, steady-state JV, TEP, and RT were recorded for 20-30 minutes. In control experiments, successive additions of IFNγ were made to test for the repeatability and reversibility of responses. To block IFNγ effects, RPE cells were incubated for 30-60 minutes with a blocking antibody against IFNγ R1, JAK inhibitor I, PKA inhibitors (H-89, EMD Biosciences; RP-8-Br-cAMPS, Sigma-Aldrich), nitric oxide synthase inhibitor (aminoguanidine hydrochloride, Sigma-Aldrich), P38 MAPK inhibitors (SB203580 or SB20290), or CHX. Other components of this signaling pathway were studied using P38 MAPK inhibitors (SB203580 and SB202190). Relatively specific Cl channel inhibitors, CFTRinh-172 or DIDS (EMD Biosciences, La Jolla, Calif.), were used to block cAMP or Ca^2+-activated Cl channels; experiments with CFTRinh-172 were performed as described in Muanprasat, C., et al., J Gen Physiol, 2004, 124, 125-137, incorporated herein by reference in its entirety. In chronic experiments, paired hfRPE tissues with matched RT values were incubated for 4-24 hours with IFNγ or CHX. The subsequent changes in JV, RT, and TEP were measured in Ringer's solution or serum free cell culture media as previously described in Shi, G., et al., Invest Ophthalmol Vis Sci, 2008 and Maminishkis, A., et al., Invest Ophthalmol Vis Sci, 2006, 47, 3612-3624, each incorporated herein by reference in its entirety. Intracellular levels of NO were elevated with 1-Hydroxy-2-oxo-3-(3-aminopropyl)-3-isopropyl-1-triazene (NOC-5, Enzo Life Sciences, Plymouth, Pa.). 8-Br-cGMP was purchased from Sigma-Aldrich.

B1: IFNγ: pleiotropic cytokine produced by T- and NK-cells; obtained from Peprotech (protein, UniProt P01579 24-161, looked up)
Interferon gamma: QDPYVKEAENLKKYFNAGHSDVADNGTLFLGILKNWKEESDRKIMQSQIVSFYFKLFKNFKDDQSIQKSVETIKEDMNVKFFNSNKKKRDDFEKLTNYSVTDLNVQRKAIHELIQVMAELSPAAKTGKRKRSQMLFRG
For the molecule B1, the “JV (fluid transport rate out of the retinal detachment)” value in the assay on rat RPE (IFNγ eye drops on anterior surface, t=0 to 40 minutes, FIG. 23B/E) is on record as 12 μl·cm^−2·hr^−1. In addition, in the assay on rat RPE (IFNγ on anterior surface of the eye), the “time in which rate of fluid absorption from subretinal space was significantly increased” value is on record as “less than 30 minutes”. For the same molecule, the “detachment size (volume)” value in the assay on rat RPE (IFNγ on anterior surface, 40 or 54 minutes) is recorded as “decrease in detachment size”. The “effect on hfRPE cell migration” value in the assay with hfRPE cells is given as “significantly inhibited”. Further, the “mean JV after IFNγ” value with hfRPE monolayers (10 experiments, from 12.9±1.6, mean±s.e.m.) was found to be 20.5±3.1 μl·cm^−2·hr^−1; with hfRPE monolayers (nine experiments (P38 series), from 7.5 ±1.9), 16.5±2.2 μl·cm^−2·hr^−1; in the assay with hfRPE monolayers (three experiments (H-89 series), from 8.4±1.6) it was 20.1±0.2 μl·cm^−2·hr^−1. In the assay on hfRPE monolayers (IFNγ 5 ng/ml apical and basal, 24 hours), the “TEP after 24 hour IFNγ” value is “no significant TEP changes”. The “mean JV after 24 hour IFNγ” value in the assay on hfRPE monolayers (IFNγ 5 ng/ml apical and basal, 24 hours, control 7.6±1.5, 5 experiments) came to 15.2±2.0 μl·cm^−2·hr^−1. For the same molecule, the “cell viability as measured by TEP and RT” value in the assay with hfRPE monolayers (IFNγ 5 ng/ml basal bath) is recorded as “no apparent changes”. Moreover, the “increase in JV” value in the assay with hfRPE monolayers (IFNγ 5 ng/ml in the basal bath, FIG. 14A) was about 8.6 μl·cm^−2·hr^−1. In addition, the “RT after 24 hour IFNγ” value in the assay with hfRPE monolayers (IFNγ 5 ng/ml, 24 hours, from 592±80, n=5) is reported as 356±139 Ω·cm^2. For the same molecule, the “effect on JV” value with hfRPE monolayers (IFNγ added to the apical bath) is recorded as “no significant effect”. The IFNγ-induced resistance change result in the assay on hfRPE monolayers (at 24 hours) is recorded as “≈ 2 fold”. Further, in the assay with hfRPE monolayers (at 24 hours), the “mean IFNγ-induced resistance change” value was “≈ 240 Ω·cm^2”. The “JV after subsequent addition of IFNγ” value in the assay on hfRPE monolayers (continued presence of Rp-8-Br-cAMPS 2 μM, six experiments) is 8.4±1.7 μl·cm^−2·hr^−1; in the assay with hfRPE monolayers (in presence of H-89, four experiments), 14.7±4.7 μl·cm^−2·hr^−1.
